Measurements published in patent publication US20140113854.

Tests used:
[1] = tested on: BRI-T208
[2] = tested on: BRI-T218

With Human α-thrombin the “cleavage of the peptide by thrombin, HPLC of the intact peptide, 75 µM peptide, 23 nM thrombin, 37 °C” value [1] was “BRI-T208 is significantly more resisitent to thrombin cleavage than BRI-T218” and the “cleavage of the peptide by thrombin, HPLC of the intact peptide, 75 µM peptide, 23 nM thrombin, 37 °C” value [2] was “completely converted to the cleavage products within two hours under the specific experimental conditions”.
